Test results reported in patent publication US20250352667A1.
Each block holds one binder with its values, some of them ahead of it.

Columns and labels:
[1] = target: KEAP1 (wild-type full-length), His-tagged (human) (UniProt Q14145); test: AlphaScreen; NRF2 wt isoform 1 2.4 nM, KEAP1 150 nM; signal against NRF2-only control; control for Q75R
[2] = target: KEAP1 (wild-type full-length), His-tagged (human) (UniProt Q14145); test: AlphaScreen; 2.4 nM FLAG-NRF2, 150 nM His-KEAP1; Rep 1; control for I28V
[3] = target: KEAP1 (wild-type full-length), His-tagged (human) (UniProt Q14145); test: AlphaScreen; FLAG-NRF2 wt isoform 1 307.2 nM, His-KEAP1 150 nM; Rep 2; positive control for Q75R
[4] = target: KEAP1 (wild-type full-length), His-tagged (human) (UniProt Q14145); test: AlphaScreen; 1228.8 nM FLAG-NRF2, 150 nM His-KEAP1; Rep 3; control for I86V
[5] = target: KEAP1 (wild-type full-length), His-tagged (human) (UniProt Q14145); test: AlphaScreen; 38.4 nM FLAG-NRF2, 150 nM His-KEAP1; signal against NRF2 only; control for I28V
[6] = target: KEAP1 (wild-type full-length), His-tagged (human) (UniProt Q14145); test: AlphaScreen; 19.2 nM FLAG-NRF2, 150 nM His-KEAP1 (same value as in Table 26)
[7] = target: KEAP1 (wild-type full-length), His-tagged (human) (UniProt Q14145); test: AlphaScreen; 4.8 nM FLAG-NRF2, 150 nM His-KEAP1; signal against NRF2 only; control for I28V
[8] = target: KEAP1 (wild-type full-length), His-tagged (human) (UniProt Q14145); test: AlphaScreen; 38.4 nM FLAG-NRF2, 150 nM His-KEAP1; Rep 3; control for I86V
[9] = target: KEAP1 (wild-type full-length), His-tagged (human) (UniProt Q14145); test: AlphaScreen; 9.6 nM FLAG-NRF2, 150 nM His-KEAP1; Repeat 1 (same value as in Table 26)
[10] = target: KEAP1 (wild-type full-length), His-tagged (human) (UniProt Q14145); test: AlphaScreen; 19.2 nM FLAG-NRF2, 150 nM His-KEAP1; signal against NRF2 only; control for I28V
[11] = target: KEAP1 (wild-type full-length), His-tagged (human) (UniProt Q14145); test: AlphaScreen; 76.8 nM FLAG-NRF2, 150 nM His-KEAP1; signal against NRF2 only; control for I86V
[12] = target: KEAP1 (wild-type full-length), His-tagged (human) (UniProt Q14145); test: AlphaScreen; NRF2 wt isoform 1 76.8 nM, KEAP1 150 nM; signal against NRF2-only control; control for Q75R
[13] = target: KEAP1 (wild-type full-length), His-tagged (human) (UniProt Q14145); test: AlphaScreen; 307.2 nM FLAG-NRF2, 150 nM His-KEAP1; signal against NRF2 only; control for I86V
[14] = target: KEAP1 (wild-type full-length), His-tagged (human) (UniProt Q14145); test: AlphaScreen; 614.4 nM FLAG-NRF2, 150 nM His-KEAP1; Rep 1; control for I28V
[15] = target: KEAP1 (wild-type full-length), His-tagged (human) (UniProt Q14145); test: AlphaScreen; FLAG-NRF2 wt isoform 1 9.6 nM, His-KEAP1 150 nM; Rep 2; positive control for Q75R
[16] = target: KEAP1 (wild-type full-length), His-tagged (human) (UniProt Q14145); test: AlphaScreen; 1228.8 nM FLAG-NRF2, 150 nM His-KEAP1; Rep 1; control for I86V
[17] = target: KEAP1 (wild-type full-length), His-tagged (human) (UniProt Q14145); test: AlphaScreen; FLAG-NRF2 Q75R 76.8 nM, His-KEAP1 150 nM; Rep 2
[18] = target: KEAP1 (wild-type full-length), His-tagged (human) (UniProt Q14145); test: AlphaScreen; NRF2 Q75R 38.4 nM, KEAP1 150 nM; signal against NRF2-only control
[19] = target: KEAP1 (wild-type full-length), His-tagged (human) (UniProt Q14145); test: AlphaScreen; FLAG-NRF2 Q75R 38.4 nM, His-KEAP1 150 nM; Rep 2
[20] = target: KEAP1 (wild-type full-length), His-tagged (human) (UniProt Q14145); test: AlphaScreen; 153.6 nM FLAG-NRF2, 150 nM His-KEAP1; signal against NRF2 only
[21] = target: KEAP1 (wild-type full-length), His-tagged (human) (UniProt Q14145); test: AlphaScreen; 19.2 nM FLAG-NRF2, 150 nM His-KEAP1 (same value as in Table 27)
[22] = target: KEAP1 (wild-type full-length), His-tagged (human) (UniProt Q14145); test: AlphaScreen; 38.4 nM FLAG-NRF2, 150 nM His-KEAP1; Rep 2
[23] = target: KEAP1 (wild-type full-length), His-tagged (human) (UniProt Q14145); test: AlphaScreen; FLAG-NRF2 I86V 76.8 nM, His-KEAP1 150 nM; Rep 2
[24] = target: KEAP1 (wild-type full-length), His-tagged (human) (UniProt Q14145); test: AlphaScreen; NRF2 I86V 4.8 nM, KEAP1 150 nM; signal against NRF2-only control
[25] = target: KEAP1 (wild-type full-length), His-tagged (human) (UniProt Q14145); test: AlphaScreen; FLAG-NRF2 I86V 38.4 nM, His-KEAP1 150 nM; Rep 2
[26] = target: KEAP1 (wild-type full-length), His-tagged (human) (UniProt Q14145); test: AlphaScreen; FLAG-NRF2 I86V 76.8 nM, His-KEAP1 150 nM; Rep 1
[27] = target: KEAP1 (wild-type full-length), His-tagged (human) (UniProt Q14145); test: AlphaScreen; FLAG-NRF2 I86V 153.6 nM, His-KEAP1 150 nM; Rep 2

Sequence of KEAP1 (wild-type full-length), His-tagged (human) (Q14145 2-624 limits assumed): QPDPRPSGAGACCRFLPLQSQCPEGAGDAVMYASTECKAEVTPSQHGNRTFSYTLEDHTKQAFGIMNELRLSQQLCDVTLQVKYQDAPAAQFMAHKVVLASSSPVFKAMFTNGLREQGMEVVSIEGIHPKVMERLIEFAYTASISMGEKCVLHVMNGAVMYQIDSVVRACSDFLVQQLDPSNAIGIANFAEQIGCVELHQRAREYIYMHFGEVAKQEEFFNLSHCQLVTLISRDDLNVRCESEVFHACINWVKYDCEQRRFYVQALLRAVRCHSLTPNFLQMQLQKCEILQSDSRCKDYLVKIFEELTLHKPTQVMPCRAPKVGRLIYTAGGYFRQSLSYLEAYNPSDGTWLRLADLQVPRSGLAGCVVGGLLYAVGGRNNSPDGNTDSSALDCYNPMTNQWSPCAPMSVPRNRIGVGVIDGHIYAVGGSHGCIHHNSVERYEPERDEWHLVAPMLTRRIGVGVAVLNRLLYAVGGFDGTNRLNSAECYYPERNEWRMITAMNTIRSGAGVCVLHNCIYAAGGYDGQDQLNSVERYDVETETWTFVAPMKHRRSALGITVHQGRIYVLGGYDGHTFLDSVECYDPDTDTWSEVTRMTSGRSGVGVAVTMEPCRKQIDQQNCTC

- S/N [1]: 1.4
- A-counts [2]: 622 A-counts
- A-counts (NRF2 plus KEAP1) [3]: 1570 A-counts
- A-counts [4]: 2610 A-counts
- S/N [5]: 3.6
- S/N [6]: 4.2
- S/N [7]: 3.2
- A-counts [8]: 3130 A-counts
- A-counts [9]: 1590 A-counts
- S/N [10]: 4.2
- S/N [11]: 2.4
- S/N [12]: 2.5
- S/N [13]: 1.5
- A-counts [14]: 1780 A-counts
- A-counts (NRF2 plus KEAP1) [15]: 900 A-counts
- A-counts [16]: 2930 A-counts
B1: NRF2 isoform 1 (wild-type full-length), FLAG-tagged (protein)
chain: MMDLELPPPGLPSQQDMDLIDILWRQDIDLGVSREVFDFSQRRKEYELEKQKKLEKERQEQLQKEQEKAFFAQLQLDEETGEFLPIQPAQHIQSETSGSANYSQVAHIPKSDALYFDDCMQLLAQTFPFVDDNEVSSATFQSLVPDIPGHIESPVFIATNQAQSPETSVAQVAPVDLDGMQQDIEQVWEELLSIPELQCLNIENDKLVETTMVPSPEAKLTEVDNYHFYSSIPSMEKEVGNCSPHFLNAFEDSFSSILSTEDPNQLTVNSLNSDATVNTDFGDEFYSAFIAEPSISNSMPSPATLSHSLSELLNGPIDVSDLSLCKAFNQNHPESTAEFNDSDSGISLNTSPSVASPEHSVESSSYGDTLLGLSDSEVEELDSAPGSVKQNGPKTPVHSSGDMVQPLSPSQGQSTHVHDAQCENTPEKELPVSPGHRKTPFTKDKHSSRLEAHLTRDELRAKALHIPFPVEKIINLPVVDFNEMMSKEQFNEAQLALIRDIRRRGKNKVAAQNCRKRKLENIVELEQDLDHLKDEKEKLLKEKGENDKSLHLLKKQLSTLYLEVFSMLRDEDGKPYSPSEYSLQQTRDGNVFLVPKSKKPDVKKN

- A-counts (NRF2 plus KEAP1) [17]: 1150 A-counts
- S/N [18]: 2.4
- A-counts (NRF2 plus KEAP1) [19]: 1280 A-counts
B2: NRF2 isoform 1 (Q75R full-length), FLAG-tagged (protein)
chain: MMDLELPPPGLPSQQDMDLIDILWRQDIDLGVSREVFDFSQRRKEYELEKQKKLEKERQEQLQKEQEKAFFAQLRLDEETGEFLPIQPAQHIQSETSGSANYSQVAHIPKSDALYFDDCMQLLAQTFPFVDDNEVSSATFQSLVPDIPGHIESPVFIATNQAQSPETSVAQVAPVDLDGMQQDIEQVWEELLSIPELQCLNIENDKLVETTMVPSPEAKLTEVDNYHFYSSIPSMEKEVGNCSPHFLNAFEDSFSSILSTEDPNQLTVNSLNSDATVNTDFGDEFYSAFIAEPSISNSMPSPATLSHSLSELLNGPIDVSDLSLCKAFNQNHPESTAEFNDSDSGISLNTSPSVASPEHSVESSSYGDTLLGLSDSEVEELDSAPGSVKQNGPKTPVHSSGDMVQPLSPSQGQSTHVHDAQCENTPEKELPVSPGHRKTPFTKDKHSSRLEAHLTRDELRAKALHIPFPVEKIINLPVVDFNEMMSKEQFNEAQLALIRDIRRRGKNKVAAQNCRKRKLENIVELEQDLDHLKDEKEKLLKEKGENDKSLHLLKKQLSTLYLEVFSMLRDEDGKPYSPSEYSLQQTRDGNVFLVPKSKKPDVKKN

- S/N [20]: 1.7
- S/N [21]: 3.2
- A-counts [22]: 1680 A-counts
B3: NRF2 isoform 1 (I28V full-length), FLAG-tagged (protein)
chain: MMDLELPPPGLPSQQDMDLIDILWRQDVDLGVSREVFDFSQRRKEYELEKQKKLEKERQEQLQKEQEKAFFAQLQLDEETGEFLPIQPAQHIQSETSGSANYSQVAHIPKSDALYFDDCMQLLAQTFPFVDDNEVSSATFQSLVPDIPGHIESPVFIATNQAQSPETSVAQVAPVDLDGMQQDIEQVWEELLSIPELQCLNIENDKLVETTMVPSPEAKLTEVDNYHFYSSIPSMEKEVGNCSPHFLNAFEDSFSSILSTEDPNQLTVNSLNSDATVNTDFGDEFYSAFIAEPSISNSMPSPATLSHSLSELLNGPIDVSDLSLCKAFNQNHPESTAEFNDSDSGISLNTSPSVASPEHSVESSSYGDTLLGLSDSEVEELDSAPGSVKQNGPKTPVHSSGDMVQPLSPSQGQSTHVHDAQCENTPEKELPVSPGHRKTPFTKDKHSSRLEAHLTRDELRAKALHIPFPVEKIINLPVVDFNEMMSKEQFNEAQLALIRDIRRRGKNKVAAQNCRKRKLENIVELEQDLDHLKDEKEKLLKEKGENDKSLHLLKKQLSTLYLEVFSMLRDEDGKPYSPSEYSLQQTRDGNVFLVPKSKKPDVKKN

- A-counts (NRF2 plus KEAP1) [23]: 2800 A-counts
- S/N [24]: 2.9
- A-counts (NRF2 plus KEAP1) [25]: 2920 A-counts
- A-counts (NRF2 plus KEAP1) [26]: 2810 A-counts
- A-counts (NRF2 plus KEAP1) [27]: 2580 A-counts
B4: NRF2 isoform 1 (I86V full-length), FLAG-tagged (protein)
chain: MMDLELPPPGLPSQQDMDLIDILWRQDIDLGVSREVFDFSQRRKEYELEKQKKLEKERQEQLQKEQEKAFFAQLQLDEETGEFLPVQPAQHIQSETSGSANYSQVAHIPKSDALYFDDCMQLLAQTFPFVDDNEVSSATFQSLVPDIPGHIESPVFIATNQAQSPETSVAQVAPVDLDGMQQDIEQVWEELLSIPELQCLNIENDKLVETTMVPSPEAKLTEVDNYHFYSSIPSMEKEVGNCSPHFLNAFEDSFSSILSTEDPNQLTVNSLNSDATVNTDFGDEFYSAFIAEPSISNSMPSPATLSHSLSELLNGPIDVSDLSLCKAFNQNHPESTAEFNDSDSGISLNTSPSVASPEHSVESSSYGDTLLGLSDSEVEELDSAPGSVKQNGPKTPVHSSGDMVQPLSPSQGQSTHVHDAQCENTPEKELPVSPGHRKTPFTKDKHSSRLEAHLTRDELRAKALHIPFPVEKIINLPVVDFNEMMSKEQFNEAQLALIRDIRRRGKNKVAAQNCRKRKLENIVELEQDLDHLKDEKEKLLKEKGENDKSLHLLKKQLSTLYLEVFSMLRDEDGKPYSPSEYSLQQTRDGNVFLVPKSKKPDVKKN
